Assay results as given in patent US10648979B2, “Molecular probes for detecting gram-negative bacteria in vitro and in vivo” (priority 2014, dated 2020).
“Also recorded” adds a separate entry of the source. Bridge positions count the residues as written; N and C are the ends. Square brackets hold non-standard residues; d marks the D form. Peptide text beside a SMILES is read from it. * marks the point of attachment. ξ: configuration not given here. NBD = O=[N+]([O-])c1ccc(*)c2nonc12; dDab = NCC[C@@H](N)C(=O)O; Dab = NCC[C@H](N)C(=O)O; AEEA = NCCOCCOCC(=O)O; ξDab = NCCC(N)C(=O)O

What was measured:
bacteria in ovine lung = experiment: Automated image processing of entire FCFM videos from ovine lung; details: 80 spots per frame threshold
Source text: FIG. 19: Image Processing Algorithms delineate ‘positive’ and ‘negative’ frames from FCFM data A) raw data for a frame that is deemed positive or negative. B) Without pre-processing, spot-detection is ineffective. Following estimation of background noise C), high-pass filtering D) and appropriate thresholding E), the current algorithm detect minimal punctate signal in negative frames F).
Analysis of NBD-UBIdend videos with thresholding at 80 spots per frame and an arbitrary cut-off of 10% enables objective detection of bacteria using a combination of Laplacian of Gaussian (LoG) and Difference of Gaussians (DoG) positive frames. […]
We have begun to develop bespoke image analysis/processing strategies to perform rapid real-time objective analysis of the large datasets generated by the probe/FCFM platform. […] These signal and image processing algorithms will be rapidly iterated in readiness for clinical application, and we expect significant components of machine-learning to be incorporated into further optimisation of NBD-UBIdend and NBD-PMX datasets.
Spots are enhanced in an image by convolving with a LoG or DoG filter. […] Finally, spots are detected with LoG or DoG. […]

[1] = water
[2] = Rodent single dose intratracheal toxicity assessment; type: in vivo, Mice; design: Creatinine / Bilirubin / Albumin: unit not given here
bacterial panel = experiment: Retention of labelling upon wash-off (PBS wash) in vitro by confocal; type: cell-based
Source text: FIG. 15: NBD-UBIdend retains fluorescence when wash performed. A) The bacterial panel was imaged by laser scanning confocal microscopy in the continued presence of NBD-UBIdend (black) and following PBS wash (white).
In the distal lung, there is likely to be significant and rapid dissipation of the probes immediately after delivery. Therefore, it is imperative that probe-bacterial labelling remains persistent under these conditions. […] As such, this resistance to ‘wash-off’ represents a surrogate indicator of probe-bacterial affinity which appears to be an absolute requirement for distal lung in situ labelling.
We have obtained evidence that the wash-off properties of the probes, most likely related to affinity and/or the nature of subsequent insertion into the bacterial membrane, impact on whether or not they can be used to successfully image in the lung. The retention of labelling upon removal of probe solution was investigated in vitro by confocal. With all of the linear UBI variants labelling was lost completely upon wash-off. […] Bacteria were pre-labelled with these linear NBD-UBINle compounds and successful labelling was confirmed by imaging the bacterial suspension pre-instillation.

[3] = test system: panel of bacteria (Gram-negative and Gram-positive); experiment: Flow cytometry of bacterial labelling; type: cell-based
Procedure: FIG. 7: NBD-UBIdend labels bacteria selectively over mammalian cells in vitro: A) Example images of a clinically relevant bacterial panel with NBD-UBIdend (5 μM; green) counterstained with the fluorescent generic cellular DNA dye Syto-82 (red) imaged by laser scanning confocal microscopy. B) Quantification of bacterial panel labelling NBD-UBIdend 5 μM (optimal concentration) where every bacteria in the panel is brighter when compared with MSSA and NBD-UBINle 10 μM (optimal concentration) C) Flow cytometry data with unstained bacteria (red), NBD-UBINle 15 μM (blue) and NBD-UBIdend 5 μM labelled bacteria (orange). […] Representative images shown, n≥3 for all experiments.
FIG. 8: NBD-PMX selectively labels Gram-negative bacteria in vitro. Example images of the bacterial panel with NBD-PMX imaged by laser scanning confocal microscopy. A) Bacterial panel with NBD-PMX 1 μM (green) and counterstain with syto-82 (red). […] C) Flow cytometric evaluation of bacterial labelling with NBD-PMX showing unstained bacteria (red) and NBD-PMX (blue) labelled bacteria. […] Representative images shown, n≥3 for all experiments.
Bacteria were prepared and counterstained with Syto 82 nucleic acid stain (Invitrogen, Calif., USA) in a shaking heat block at 37° C. and 350 rpm for 20 minutes. […] This was diluted to 500 uL and analysed using BD FACS Calibur using FL-1 and FL-2 channels, with 10,000 events. […]

A549 cells = experiment: Labelling of A549 cells (confocal); type: cell-based, human
Procedure: All compounds have undergone biological assessment.
A549 cells were grown in Dulbecco's modified Eagle's medium (DMEM) supplemented with 10% fetal bovine serum (FBS), 2 mM L-glutamine, 100 units/mL penicillin G and 100 μg/mL streptomycin to 80% confluence. Cells were dispersed with Trypsin-EDTA and seeded onto glass coverslips or 8 well confocal imaging chambers and grown to confluence in the presence of DMEM.
Bacteria were prepared and counterstained with Syto 82 nucleic acid stain (Invitrogen, Calif., USA) in a shaking heat block at 37° C. and 350 rpm for 20 minutes. They were co-incubated with the probe at required concentration in a sealed POC mini chamber, or 8 well confocal chamber. When required the glass coverslip for the POC chamber was coated in fibronectin (for neutrophil experiments) or poly-d-lysine (for bacteria and cell lines) and incubated with cells with one hour at 37° C. to allow adherence prior to bacterial innoculation. Analysis was with ImageJ. Briefly, the Syto channel was automatically thresholded (Huang) and an ROI generated from this. The mean fluorescence intensity on the probe channel within this ROI was quantified. Data presented represents the mean of three separate fields of view.

CC(C)C[C@@H]1NC(=O)[C@@H](Cc2ccccc2)NC(=O)[C@@H](CCN)NC(=O)C(NC(=O)[C@H](CCN)NC(=O)[C@@H](NC(=O)COCCOCCNc2ccc([N+](=O)[O-])c3nonc23)[C@@H](C)O)CCNC(=O)[C@@H]([C@H](C)O)NC(=O)[C@H](CCN)NC(=O)[C@H](CCN)NC1=O (stereo partly drawn) [NBD-PMX] ({NBD-AEEA}-T[Dab][ξDab][dDab][dF]L[Dab][Dab][dT]; lactam 3-C)
detection by automated image processing (percentage positive frames, YES/NO) (bacteria in ovine lung): unequivocal detection of bacteria and Gram status | Solubility [1]: Fully soluble in water | ALP ([2]; 48 hours): 107.7 ± 17.3 u/l | ALT ([2]; 48 hours): 36.0 ± 9.0 u/l | Albumin ([2]; 48 hours): 23.7 ± 0.3 | BALF ([2]; 48 hours): 509.0 ± 270.2 Cells/ul | Bilirubin ([2]; 48 hours): 1.2 ± 0.4 | Creatinine ([2]; 48 hours): 16.3 ± 8.8 | Cytospin (% of Neutrophils) ([2]; 48 hours): 0% | Cytospin (% of Red Blood Cells) ([2]; 48 hours): 3.9% | PenH value ([2]; 48 hours): 0.5 ± 0.05 | Cytospin (% of Mononuclear cells) ([2]; 48 hours, single intratracheal 100 μg/25 g mouse): 96.1% | ALP ([2]; 14 days): 126.3 ± 8.5 u/l | ALT ([2]; 14 days): 40.3 ± 4.8 u/l | Albumin ([2]; 14 days): 25.3 ± 0.7 | BALF ([2]; 14 days): 542.0 ± 84.7 Cells/ul | Bilirubin ([2]; 14 days): 1.2 ± 0.4 | Creatinine ([2]; 14 days): 9.7 ± 0.3 | Cytospin (% of Neutrophils) ([2]; 14 days): 0% | Cytospin (% of Red Blood Cells) ([2]; 14 days): 2.3% | PenH value ([2]; 14 days): 0.5 ± 0.07 | Cytospin (% of Mononuclear cells) ([2]; 14 days, single intratracheal 100 μg/25 g mouse): 93.0% | organ toxicity (histology) ([2]; single instillation, 48 hours and 14 days, compared to PBS control): no organ toxicity | toxicity ([2]; single intratracheal 100 μg/25 g mouse, 48 hours and 14 days): no toxicity | retention of labelling upon wash-off (bacterial panel): resistant to wash-off | labelling of Gram-positive bacteria by flow cytometry [3]: No significant labelling of Gram-positive bacteria | labelling of A549 cells (A549 cells): retains selectivity of labeling over mammalian cells; also recorded: no labelling of human neutrophils or A549 cells
